Laboratory results taken from patent US6517838B1, “Decorin binding protein essential peptides and methods of use” (The Texas A&M University System, priority 2000, dated 2003).

Legend:
[1] = system: B. burgdorferi strain B31; assay: Joint cultures for spirochetes after infection of immunized mice; assay type: in vivo; settings: immunized C3H/HeJ mice, joints 14 days post infection
Description: (§1) Mice were immunized with recombinant DbpA (SEQ ID 1), P2 (SEQ ID 3), P4 (SEQ ID 5), P5 (SEQ ID 6), P4/P5 (SEQ ID 5/SEQ ID 6), P9 (SEQ ID 10), or the corresponding lysine modified counterparts (P2 Mod, P4 Mod, P5 Mod or P9 Mod) using the immunization schedule established by Hanson (11). Briefly, mice were immunized with 20 μg of protein or peptide in complete Freund's adjuvant (CFA) (Week 1), boosted at week 4 with the same dose in incomplete Freund's adjuvant (IFA) and infected at week 6.
(§2) Low-passage B. burgdorferi strain B31 (passage 5) was used in this study and cultured in BSK II (Barbour-Stoenner-Kelly) medium at 34° C. (22). Bacterial cultures were incubated in CO2-enriched atmosphere in a GasPak chamber (BBL, Baltimore, Md.) containing BBL GasPak Plus envelopes and a GasPak anaerobic indicator (Beckton dickinson, Cockeysville, Md.) until the cells reached log phase. Bacterial counts were determined using dark field microscopy and a Petroff-Hausser chamber.
(§3) Mice (15 mice/group) were anesthetized with Metofane (methoxyflurane; Pitman-Moore, Mundelein, Ill.) and 10 mice/ group were infected i.d. at the base of the tail with 10^4 Borrelia in 100 μl of media 6 six weeks after the first immunization. The remaining 5 mice/group were tested for a DTH response to recombinant DbpA. Following infection, mice were bled 7 and 14 days postinfection. […]

[2] = system: B. burgdorferi strain B31; assay: Arthritis assessment, histopathology of hind tibiotarsal joints of immunized infected mice; assay type: in vivo
Description: as §1
Mice (15 mice/group) were anesthetized with Metofane (methoxyflurane; Pitman-Moore, Mundelein, Ill.) and 10 mice/ group were infected i.d. at the base of the tail with 10^4 Borrelia in 100 μl of media 6 six weeks after the first immunization. The remaining 5 mice/group were tested for a DTH response to recombinant DbpA. Following infection, mice were bled 7 and 14 days postinfection. Serum was collected for antibody analysis and blood cultured for the detection of live spirochetes by inoculating 5 ml of BSK II medium with 50 μl of blood from each infected mouse and cultured for 2 weeks at 34° C. as described above. Also on day 14 postinfection, mice were sacrificed and one hind tibiotarsal joint, heart, bladder, and a 3 mm skin biopsy from the ear were aseptically removed and inoculated into separate tubes containing 6 ml of BSK II medium with antibiotics (50 μg/ml rifampacin and 100 μg/ml phosphomycin (Sigma), and incubated for 2 weeks at 34° C. as described above. Evidence of arthritis was determined by histopathological examination of formalin-fixed hind tibiotarsal joint samples.
Evidence of arthritis was determined by histopathological examination of formalin-fixed hind tibiotarsal joint samples. Tissues for histological examination were embedded in paraffin and stained with hematoxylin and eosin. All sections were examined without knowledge of the vaccination status of the mouse. Arthritis was scored by one of two methods. A positive/negative assessment was used, as well as assignment of an arthritis severity score. Joints were scored according to the levels of infiltrate (neutrophils) as follows: 0, no arthritis, 1, minimal or rare (≦10% tissue involvement); 2, mild (10-20%); […]; and 4, severe (>50%).
A similar trend was also observed for joints examined for arthritis (Table I). DbpA-(SEQ ID 1), P4-(SEQ ID 5), and P5-(SEQ ID 6) immunized mice had the lowest arthritis ratings (0.2, 1.2, and 0.4, respectively) and lowest arthritis incidence (20, 60, and 20%, respectively).

[3] = system: B. burgdorferi strain B31; assay: Blood cultures for spirochetes after infection of immunized mice; assay type: in vivo; settings: immunized C3H/HeJ mice, blood 7 days post infection with 10^4 Borrelia i.d.
Description: as §1, §2, §3

[4] = system: recombinant DbpA; assay: Delayed-type hypersensitivity (DTH) to DbpA, footpad swelling in immunized mice; assay type: in vivo, B. burgdorferi
Description: as §1
Native C3H/HeJ mice immunized with DbpA (SEQ ID 1), P2 (SEQ ID 3), P4 (SEQ ID 5), P5 (SEQ ID 6), P4/P5 (SEQ ID 5/SEQ ID 6), P9 (SEQ ID 10), or the corresponding lysine modified counterparts (P2 Mod, P4 Mod, P5 Mod or P9 Mod) were challenged with 2 μg of recombinant DbpA in PBS (50 μl/footpad) 7 weeks after the initial immunization. All footpads were measured before and 24 h after challenge using a spring-loaded micrometer (Mitutoyo, Tokyo, Japan) as described (23). The mice were anesthetized as described above during footpad measurements and injections. Swelling was determined by subtracting the footpad measurements before challenge from those taken 24 h after challenge.
DTH is an in vivo method of testing T cell-dependent immune responses that are manifested by inflammation at the site of antigenic challenge. Mice immunized with DbpA (SEQ ID 1), P2 (SEQ ID 3), P4 (SEQ ID 5), P5 (SEQ ID 6), P4/P5 (SEQ ID 5/SEQ ID 6) combined, P9 (SEQ ID 10), or the corresponding lysine-modified peptides were challenged in the footpad with 2 μg of recombinant DbpA (SEQ ID 1). Footpad measurements were taken before and after challenge as described above. DbpA (SEQ ID 1)-immunized mice developed a significant footpad swelling of 53.3±3.5 (not shown) compared to mice immunized with adjuvant alone or naive mice receiving only the DbpA (SEQ ID 1) challenge. Peptide-immunized mice, with the exception of P2 (SEQ ID 3), also developed a significant DTH response to DbpA (SEQ ID 1) compared to the lysine-modified controls.

[5] = system: polyclonal, rabbit anti-DbpA (625); assay: ELISA recognition of DbpA-peptides by polyclonal anti-DbpA serum; assay type: binding; settings: 2 μg peptide/well, 1:1000 anti-DbpA serum, FIG. 2
Description: Immulon-1 microtiter plate wells (Dynatech Labs, Chantilly, Va.) were coated with 2.0 μg of each peptide in 50 μl of PBS overnight at 4° C. The wells were washed and then blocked with 400 μl of Super Block (Pierce, Rockford, Ill.). All incubations were done at 37° C. and all dilutions were made using Super Block. After washing, 100 μl of a 1:1000 dilution of polyclonal, rabbit anti-DbpA (625) (17) was added for 1 hr. After washing, 100 μl of a 1:1000 dilution of AP-conjugated anti-rabbit IgG (Bio-Rad, Hercules, Calif.) was added for 1 hr. The wells were washed and incubated with 100 μl of a 1 mg/ml of Sigma 104 phosphatase substrate (Sigma Chemical Co., St. Louis, Mo.) dissolved in 1 M diethanolamine, 0.5 mM MgCl2, pH 9.8. Plates were washed with 0.05% PBS-Tween 20 between all steps. The absorbance at 410 nm was determined in a Microplate Reader (Molecular Devices, Menlo Park, Calif.).
Immunizations utilizing peptide formulations require that immune responses to the peptide(s) result in recognition of native-protein epitopes. […] Cross-reactivity of peptide epitopes with native protein was examined by ELISA.

[6] = molecular target: T1, decorin (Bos taurus, UniProt P21793); assay: Western ligand blot with digoxigenin-labeled decorin; assay type: binding, bovine; settings: SDS-PAGE reducing, probed with digoxigenin-labeled decorin
T1 construct: Decorin from bovine fetal skin was purified and stored in 4 M guanidine hydrochloride; from tissue; host or cells: decorin from bovine fetal skin; DbpA made in E. coli JM101
T1 sequence (P21793 31-360): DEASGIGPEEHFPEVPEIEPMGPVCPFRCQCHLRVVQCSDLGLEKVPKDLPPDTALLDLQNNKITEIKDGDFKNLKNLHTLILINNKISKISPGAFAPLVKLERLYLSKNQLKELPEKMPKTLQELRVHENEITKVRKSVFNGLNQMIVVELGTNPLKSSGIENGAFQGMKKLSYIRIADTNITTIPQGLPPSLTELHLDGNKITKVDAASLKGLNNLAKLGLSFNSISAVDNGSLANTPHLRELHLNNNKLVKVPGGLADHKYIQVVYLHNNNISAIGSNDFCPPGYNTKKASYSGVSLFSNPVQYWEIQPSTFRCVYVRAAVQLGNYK
Description: Decorin from bovine fetal skin was purified and stored in 4 M guanidine hydrochloride at −80° C. and dialyzed extensively against PBS before use. Decorin was labeled with digoxigenin-3-O-methylcarbonyl-ε-aminocaproic acid-N-hydroxy-succinimide ester (digoxigenin) (Boehringer Mannheim, Indianapolis. Ind.) according to the manufacturer's instructions and stored at −20° C. To label decorin with biotin, 7.5 mg of NHS-LC-Biotin (sulfosuccinimidyl-6-(biotinamido) hexanoate) (Pierce, Rockford, Ill.) was dissolved in 100 μl of dimethyl sulfoxide and combined with 0.5 mg of decorin and 0.5 ml of 0.2 M sodium borate (pH 8.0) in a total reaction volume of 1 ml.
Proteins (purified DbpA, DbpA site-directed mutants and OspC) were subjected to SDS-PAGE (reducing conditions) and probed with rabbit anti-DbpA polyclonal sera (R625) or with digoxigenin-labeled decorin.
Further, the side chains of lysine residues were chemically modified and the binding properties of the resulting protein examined. […] Both forms of DbpA migrated as two bands, monomers at 20 and 21 kDa and dimers at 40 and 42 kDa for DbpA and chemically modified DbpA (K-mod), respectively. The decorin binding activity of the DbpA and lysine-modified DbpA was examined in a Western ligand blot assay (FIG. 6B).

B1: DbpA: recombinant decorin binding protein A of B. burgdorferi strain 297, N-terminal His-tag fusion (protein)
chain: MIKCNNKTFNNLLKLTILVNLLISCGLTGATKIKLESSAKAIVDEIDAIKKKAASMGVNFDAFKDKKTGSGVSENPFILEAKVRATTVAEKFVIAIEEEATKLKETGSSGEFSAMYDLMFEVSKPLQELGIQEMTKTVSMAAEENPPTTAQGVLEIAKKMREKLQRVHKKNQDTLKKKNTEDSTAKS
modifications: N-terminal His-tag; Borrelia Burgdorferi
[1]
  positive joint cultures: 20%
[2]; immunized infected mice
  arthritis incidence and severity (in words): lowest
[2]; immunized mice, day 14 post infection, tibiotarsal joint histology
  % Incidence (arthritis): 20%
[2]; severity score 0-4 by neutrophil infiltrate, day 14 post infection
  Mean Arthritis Rating: 0.2
[3]
  positive blood cultures: 50-60%
[4]; C3H/HeJ mice immunized with 20 μg, challenged with 2 μg recombinant DbpA in footpad, 24 h
  DTH response to DbpA (in words): significant inflammation
[4]; C3H/HeJ mice, 24 h after challenge with 2 μg recombinant DbpA, mean±SE
  footpad swelling: 53.3±3.5
[5]
  recognition by anti-DbpA serum (ELISA, O.D. 410 nm): recognized
[6]
  decorin binding in Western ligand blot: bound digoxigenin-labeled decorin
